Measurements reported in publication PMC3335088 (PLoS ONE, 2012).

B1: MCM-BP with no tags (natural protein, human, UniProt Q9BTE3 1-642, looked up)
chain: MPCGEDWLSHPLGIVQGFFAQNGVNPDWEKKVIEYFKEKLKENNAPKWVPSLNEVPLHYLKPNSFVKFRCMIQDMFDPEFYMGVYETVNQNTKAHVLHFGKYRDVAECGPQQELDLNSPRNTTLERQTFYCVPVPGESTWVKEAYVNANQARVSPSTSYTPSRHKRSYEDDDDMDLQPNKQKDQHAGARQAGSVGGLQWCGEPKRLETEASTGQQLNSLNLSSPFDLNFPLPGEKGPACLVKVYEDWDCFKVNDILELYGILSVDPVLSILNNDERDASALLDPMECTDTAEEQRVHSPPASLVPRIHVILAQKLQHINPLLPACLNKEESKTCKFVSSFMSELSPVRAELLGFLTHALLGDSLAAEYLILHLISTVYTRRDVLPLGKFTVNLSGCPRNSTFTEHLYRIIQHLVPASFRLQMTIENMNHLKFIPHKDYTANRLVSGLLQLPSNTSLVIDETLLEQGQLDTPGVHNVTALSNLITWQKVDYDFSYHQMEFPCNINVFITSEGRSLLPADCQIHLQPQLIPPNMEEYMNSLLSAVLPSVLNKFRIYLTLLRFLEYSISDEITKAVEDDFVEMRKNDPQSITADDLHQLLVVARCLSLSAGQTTLSRERWLRAKQLESLRRTRLQQQKCVNGNEL
notes: MCM-BP, human; made from pfastBacHT.MCM-BP by excising the 6-His tag; also called untagged MCM-BP; nontagged MCM-BP; source: High Five insect cells, baculovirus, co-expressed, in lysate
B2: His-tagged MCM-BP (natural protein, human, UniProt Q9BTE3 1-642, looked up)
chain: B1 chain
notes: MCM-BP, human; pfastBacHT.MCM-BP; also called His-MCM-BP; His-BP; source: High Five insect cells, baculovirus; not shown: His6, N-terminal, kept

Legend:
Details in all cases: partners not purified
[1] = target: T1, MCM6 with 6-His tag in combination with a HA tag (human, UniProt Q14566 1-821); experiment: pull-down; co-expression in High Five insect cells; lysis in 50-100 mM Tris-HCl pH 8.0, 150 mM NaCl, 5% glycerol, 0.5% Triton X-100; tagged protein recovered on Ni-NTA, anti-FLAG M2, anti-HA or StrepT-actin resin, 1 hr at 4°C; washes with 300 mM NaCl; Coomassie staining and Western blot
T1 construct: MCM6; also called HA-MCM6; 6-His-tagged MCM6; source: High Five insect cells, baculovirus, in lysate
T1 sequence (looked up): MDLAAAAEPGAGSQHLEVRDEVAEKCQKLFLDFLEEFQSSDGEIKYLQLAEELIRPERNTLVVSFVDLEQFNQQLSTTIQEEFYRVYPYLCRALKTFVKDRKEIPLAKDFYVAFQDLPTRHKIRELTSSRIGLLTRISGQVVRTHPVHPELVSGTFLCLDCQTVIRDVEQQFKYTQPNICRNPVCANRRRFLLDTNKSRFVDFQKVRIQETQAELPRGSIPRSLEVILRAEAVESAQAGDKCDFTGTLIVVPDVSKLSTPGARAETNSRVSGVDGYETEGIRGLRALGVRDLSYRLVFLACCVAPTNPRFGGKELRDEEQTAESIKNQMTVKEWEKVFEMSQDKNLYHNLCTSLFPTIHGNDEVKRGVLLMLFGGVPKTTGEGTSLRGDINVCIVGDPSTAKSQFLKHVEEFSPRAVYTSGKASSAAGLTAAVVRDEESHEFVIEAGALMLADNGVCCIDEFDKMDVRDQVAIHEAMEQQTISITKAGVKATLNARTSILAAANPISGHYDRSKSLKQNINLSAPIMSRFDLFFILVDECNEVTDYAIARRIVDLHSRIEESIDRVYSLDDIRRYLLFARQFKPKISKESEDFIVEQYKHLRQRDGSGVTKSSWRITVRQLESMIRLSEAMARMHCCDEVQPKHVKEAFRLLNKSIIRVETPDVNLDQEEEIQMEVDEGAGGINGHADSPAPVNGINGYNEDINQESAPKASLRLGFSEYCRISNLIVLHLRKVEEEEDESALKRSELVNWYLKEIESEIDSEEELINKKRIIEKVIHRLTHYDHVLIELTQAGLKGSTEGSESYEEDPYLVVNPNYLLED

[2] = target: T2, MCM4 with 6-His tag in combination with a StrepII tag (UniProt P33991 1-863); experiment: as above
T2 construct: MCM4; The methods describe one MCM4 baculovirus with both tags; also called Strep-MCM4; Strep-tagged MCM4; source: High Five insect cells, baculovirus, in lysate
T2 sequence (looked up): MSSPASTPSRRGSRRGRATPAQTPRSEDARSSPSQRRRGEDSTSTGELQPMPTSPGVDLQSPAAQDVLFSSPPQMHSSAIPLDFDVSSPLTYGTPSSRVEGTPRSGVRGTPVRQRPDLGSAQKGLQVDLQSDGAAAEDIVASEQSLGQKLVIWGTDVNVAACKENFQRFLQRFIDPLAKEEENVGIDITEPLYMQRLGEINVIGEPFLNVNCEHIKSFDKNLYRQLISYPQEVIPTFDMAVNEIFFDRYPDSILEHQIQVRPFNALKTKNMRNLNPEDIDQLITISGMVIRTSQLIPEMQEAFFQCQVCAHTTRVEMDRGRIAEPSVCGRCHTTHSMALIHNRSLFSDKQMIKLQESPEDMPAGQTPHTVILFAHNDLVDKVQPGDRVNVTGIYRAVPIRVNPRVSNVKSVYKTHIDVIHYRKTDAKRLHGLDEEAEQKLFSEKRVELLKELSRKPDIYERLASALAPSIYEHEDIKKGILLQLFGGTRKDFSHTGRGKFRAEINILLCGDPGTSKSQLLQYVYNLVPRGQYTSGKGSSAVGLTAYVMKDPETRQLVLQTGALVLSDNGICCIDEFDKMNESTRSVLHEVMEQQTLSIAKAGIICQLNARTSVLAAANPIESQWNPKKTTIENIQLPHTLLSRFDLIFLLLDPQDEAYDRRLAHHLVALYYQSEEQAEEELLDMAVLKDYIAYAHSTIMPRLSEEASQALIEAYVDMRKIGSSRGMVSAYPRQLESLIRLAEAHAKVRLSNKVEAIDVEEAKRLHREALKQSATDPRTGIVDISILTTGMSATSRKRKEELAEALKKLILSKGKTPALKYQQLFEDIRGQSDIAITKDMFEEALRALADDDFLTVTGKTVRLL

[3] = target: T3, MCM5 with 6-His tag in combination with a triple FLAG tag (UniProt P33992 1-734); experiment: as above
T3 construct: MCM5; also called FLAG-MCM5; 6-His-tagged MCM5; source: High Five insect cells, baculovirus, in lysate; not shown: His6, N-terminal, kept; triple FLAG, N-terminal, kept
T3 sequence (looked up): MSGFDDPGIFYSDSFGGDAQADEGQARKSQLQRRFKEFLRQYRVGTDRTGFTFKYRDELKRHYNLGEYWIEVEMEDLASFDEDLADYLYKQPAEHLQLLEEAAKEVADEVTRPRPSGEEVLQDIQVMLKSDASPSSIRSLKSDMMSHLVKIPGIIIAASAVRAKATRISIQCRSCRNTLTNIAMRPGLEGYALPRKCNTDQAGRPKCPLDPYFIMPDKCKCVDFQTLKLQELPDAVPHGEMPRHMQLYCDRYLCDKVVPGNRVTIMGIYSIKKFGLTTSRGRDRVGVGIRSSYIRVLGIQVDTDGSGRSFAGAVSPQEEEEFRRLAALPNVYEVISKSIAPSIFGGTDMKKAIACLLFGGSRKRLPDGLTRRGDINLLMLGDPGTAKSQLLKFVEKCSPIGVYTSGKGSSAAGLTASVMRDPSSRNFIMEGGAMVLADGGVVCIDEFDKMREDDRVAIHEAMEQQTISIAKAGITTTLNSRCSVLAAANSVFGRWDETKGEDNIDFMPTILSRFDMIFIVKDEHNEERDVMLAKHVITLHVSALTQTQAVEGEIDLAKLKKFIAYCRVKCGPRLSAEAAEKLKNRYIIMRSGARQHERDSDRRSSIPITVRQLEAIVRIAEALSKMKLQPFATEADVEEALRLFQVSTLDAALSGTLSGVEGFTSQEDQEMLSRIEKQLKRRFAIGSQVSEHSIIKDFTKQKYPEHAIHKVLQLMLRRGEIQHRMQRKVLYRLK

untagged MCM3 = target: T4, untagged MCM3 (UniProt P25205 1-808); experiment: pull-down; co-expression in High Five insect cells; NaCl of the clarified lysate raised from 0.15 M up to 0.75 M, or deoxycholate added to 0.1 or 0.5% (with 150 mM NaCl), before incubation with Strep-T actin, anti-FLAG or nickel resin; Coomassie staining
T4 construct: MCM3, untagged; construct not described in the methods; also called MCM3 (no tag); source: High Five insect cells, baculovirus, in lysate; co-isolated with His-MCM-BP for the gradient
T4 sequence (looked up): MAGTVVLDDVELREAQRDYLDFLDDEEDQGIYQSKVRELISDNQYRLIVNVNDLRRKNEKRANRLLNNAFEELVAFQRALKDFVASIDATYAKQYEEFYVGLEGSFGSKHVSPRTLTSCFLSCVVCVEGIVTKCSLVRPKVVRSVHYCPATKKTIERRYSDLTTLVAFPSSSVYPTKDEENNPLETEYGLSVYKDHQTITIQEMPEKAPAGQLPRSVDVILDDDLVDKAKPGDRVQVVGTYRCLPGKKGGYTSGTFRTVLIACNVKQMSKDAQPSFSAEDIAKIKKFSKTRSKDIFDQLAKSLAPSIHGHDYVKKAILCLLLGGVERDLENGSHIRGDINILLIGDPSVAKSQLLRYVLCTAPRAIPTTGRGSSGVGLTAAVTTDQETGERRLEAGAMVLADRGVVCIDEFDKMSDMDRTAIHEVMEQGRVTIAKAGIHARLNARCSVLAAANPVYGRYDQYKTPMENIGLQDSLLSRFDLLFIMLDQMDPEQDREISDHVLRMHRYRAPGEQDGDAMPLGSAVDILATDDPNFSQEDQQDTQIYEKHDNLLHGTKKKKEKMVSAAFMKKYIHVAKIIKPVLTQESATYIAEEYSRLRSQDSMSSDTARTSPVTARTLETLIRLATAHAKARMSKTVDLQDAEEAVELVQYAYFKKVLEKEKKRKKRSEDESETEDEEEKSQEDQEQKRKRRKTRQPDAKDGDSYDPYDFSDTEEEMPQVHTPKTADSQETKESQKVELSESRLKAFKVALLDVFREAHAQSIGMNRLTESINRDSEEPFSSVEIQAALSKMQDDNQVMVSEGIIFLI

Binder	binding result [1]	binding result [2]	binding result [3]	binding result (untagged MCM3)
B1	binds	binds	binds	
B2				binds
